According to US20180088111A1 (published 2018):
Values belong to the molecule of their own block, whether it stands above or below them.

What was measured:
[1] = target: hPD1(25-167)-Myc-TVMV-His (human) (UniProt Q15116); test: SPR (Biacore T200), hPD1(25-167)-His on chip, MIH4 analyte, no PDL-1
[2] = target: hPD1(25-167)-3S-IG (human) (UniProt Q15116); test: SPR (Biacore T200), hPD1(25-167)-3S-IG on chip, MIH4 analyte, no PDL-1
[3] = target: hPD1(25-167)-Myc-TVMV-His (human) (UniProt Q15116); test: SPR (Biacore T200), hPD1(25-167)-His on chip, MIH4 analyte, in the presence of PDL-1 ('2M' [sic])
[4] = target: hPD1(25-167)-Myc-TVMV-His (human) (UniProt Q15116); test: SPR (Biacore T200), hPD1(25-167)-His coupled to CM5 chip, MIH4 0.195-50 nM as analyte
recombinant human PDL-1 = target: T1, recombinant human PDL-1 (human, UniProt Q9NZQ7 19-239); test: SPR (ProteOn XPR36), hPD1(25-167)-His captured by His-tag on HTG chip, hPDL-1 0.125-2 µM as analyte, equilibrium analysis
T1 construct: Bought (R&D Systems); whole entry named; also called hPDL-1; soluble human PDL-1
T1 sequence (Q9NZQ7 19-239 limits assumed): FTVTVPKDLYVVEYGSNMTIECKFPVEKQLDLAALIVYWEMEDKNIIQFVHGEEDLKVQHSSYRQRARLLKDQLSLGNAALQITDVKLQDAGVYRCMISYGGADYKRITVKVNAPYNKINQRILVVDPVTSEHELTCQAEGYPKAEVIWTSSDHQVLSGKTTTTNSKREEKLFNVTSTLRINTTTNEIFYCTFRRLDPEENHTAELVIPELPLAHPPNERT
Procedure: The surface was activated by injecting nickel (II) ions at 30 μl/min for 120 s. All analyses were performed at 25° C. in a PBS-0.05% TWEEN® solution.
The surface was regenerated with 300 mM EDTA (pH 8.5) following BioRad's recommendations. The binding data were analyzed using the PROTEON MANAGER™ Software from Bio-Rad.
Soluble, human PDL-1 was injected into the mobile phase as an analyte.

Kd [1]: 2.8 nM | koff [1]: 0.00038 s⁻¹ | kon [1]: 130000 M⁻¹ s⁻¹ | Kd [2]: 0.5 nM | koff [2]: 0.00024 s⁻¹ | kon [2]: 480000 M⁻¹ s⁻¹ | Kd [3]: 2.9 nM | koff [3]: 0.00034 s⁻¹ | kon [3]: 120000 M⁻¹ s⁻¹ | response level (RU) [4]: 0.2 to 49 RU
Molecule: MIH4 (antibody)

Kd (recombinant human PDL-1): 2800 nM
B1: hPD1(25-167)-Myc-TVMV-His (receptor)
chain: LDSPDRPWNPPTFSPALLVVTEGDNATFTCSFSNTSESFVLNWYRMSPSNQTDKLAAFPEDRSQPGQDCRFRVTQLPNGRDFHMSVVRARRNDSGTYLCGAISLAPKAQIKESLRAELRVTERRAEVPTAHPSPSPRPAGQFQEQKLISEEDLGSSETVRFQGHHHHHH
modifications: glycosylated (HEK293 expression)
notes: range 25-167; Expressed in HEK293-6E cells; glycosylated monomer in solution by SEC-MALS; also called hPD1(25-167)-His; hPD-1(25-167)-His
